Measurements reported in the RNAGym collection of RNA variant scans (doi:10.7554/elife.90254).

B1: LINE1-full (parent)
chain: UACGUAGGUGGUUUUCCCCUGAUAGUGCUAAGGGGGCCUGGAAGUUUGGACUGGGCAGAGCUCAACACAGCGUGGCAAAGUGGCUGUGGCUAGACUGCCUCUCUGGAUUCCUCGUCACUCAGCAGGGCAUCUCUGAGAGAAAUGCC

Variants of: B1
Assay: self-cleavage, relative activity (ratio to wild type); higher = more cleavage; in vitro, sequencing; the parent is a self-cleaving ribozyme

| Variant | self-cleavage |
| --- | --- |
| CACGUAGGUGGUUUUCCCCUGAUAGUGCUAAGGGGGCCUGGAAGUUUGGACUGGGCAGUGCUCAACACAGCGUGGCAAAGUGGCUGUGGCUAGACUGCCUCUCUGGAUUCCUCGUCACUCAGCAGGGCAUCUCUGAGAGAAAUGCC [U1C A59U] | 0.56 |
| UACGUAGGUGGUUUUCCCCUGAUAGUGCUAAGGGGGCCCGGAAGUUUGGACUGGGCGGAGCUCAACACAGCGUGGCAAAGUGGCUGUGGCUAGACUGCCUCUCUGGAUUCCUCGUCACUCAGCAGGGCAUCUCUGAGAGAAAUGCC [U39C A57G] | 0.44 |
| UACGUAGGCGGUUUUCCCCUGAUAGUGCUAAGGAGGCCUGGAAGUUUGGACUGGGCAGAGCUCAACACAGCGUGGCAAAGUGGCUGUGGCUAGACUGCCUCUCUGGAUUCCUCGUCACUCAGCAGGGCAUCUCUGAGAGAAAUGCC [U9C G34A] | 1.05 |
| UACGUAGGUGGUCUUCCCCUGAUAGUGCUAAGGGGGCCUGGAAGUUUGGACUGGGCAGAGCUCAACACAGCGUGGCAAAGUGGCUGUGGCUAGACUGCCUCUCUGGAUUCCUCGUCACUCAGCAGGGCACCUCUGAGAGAAAUGCC [U13C U130C] | 1.2 |
| UACGUAGGUGGUUUUCCCCUGAUAGUGCUAAGGGGGCCUGGAAGUUUGGACUGGGCAGAGCUCAACACAGCGUGGCAAAGUGGCUGUGGCUAGACUGCCUCUCUGGAUUCCUCGUCACUCUGCACGGCAUCUCUGAGAGAAAUGCC [A121U G125C] | 1.28 |
| UACGUAGGUGGUUUUCCCCCGAUAGUGCUAAGGGGGCCUGGAAGUUUGGACUGGGCAGAGCUCAACACAGCGUGGCAAAGUGGCUGUGGCUUGACUGCCUCUCUGGAUUCCUCGUCACUCAGCAGGGCAUCUCUGAGAGAAAUGCC [U20C A92U] | 0.72 |
| UACGUAGGUGGUUUUCCCCUGAUAGUGCUAAGGGGGCCUGGAAGUUUGGACUGGGCAGAGCCCAACACAGCGUGGCAAAGUGGCUGUGGCUUGACUGCCUCUCUGGAUUCCUCGUCACUCAGCAGGGCAUCUCUGAGAGAAAUGCC [U62C A92U] | 0.04 |
| UACGUAGGUGGUUUUCCCCUGAUAGUGCUAAGGGGGCCUGGAAGUUUGGACUGGGCAGAGCUCAACACAGCGUGGCAGAGUGGCUGUGGCUAGACUGCCUCUCUGGAUUCCUCGUCACUCAGCAGGGCAUCUCUGAGAGAAGUGCC [A78G A142G] | 1.21 |
| UACGUAGGUGGUUUUCCCCUGAUAGUGCUAAGGGGGCCAGGAAGUUUGGACUGGGCAGAGCUCAACACAGCGUGGCAAAGCGGCUGUGGCUAGACUGCCUCUCUGGAUUCCUCGUCACUCAGCAGGGCAUCUCUGAGAGAAAUGCC [U39A U81C] | 1.39 |
| UACGUAGGUGGUUUUCCCCUGAUAGUGCUAAGGGGGCCUGGAAGUUUGGACUGGGCAGAGCUCAACACAGCGUGGCAAAGUGGCCGUGGCUAGACUGCCUCUCUGGAUUCCUCGUCACUCGGCAGGGCAUCUCUGAGAGAAAUGCC [U85C A121G] | 0.25 |
| UACGUAGGUGGUUUUCCCCUGAUAGUGCUAAGGGGGCCUGGAAGUUUGGACUGGGCAGAGCUCAACACAGCGUGGCAAAGUGGCUGUGGCUAGACUGCCUCUCUGGAUUCCUCGUUACUCAGCAGGGCAUCCCUGAGAGAAAUGCC [C116U U132C] | 0.91 |
| UACGUAGGUGGUUUUCCCCUGAUAGUGCUAAGGGGGCCUGGAAGUUUGGACUGGGCAGAGCUCAACACAGCGUGGCAAAGUGGCUGUGACUAGACUGCCUCUCUGGAUUCCUCGUCACUCAGCAGGGCAUCUCUGAGAGAGAUGCC [G89A A141G] | 0.02 |
| UACGUAGGUGGUUUUCCCCUGAUAGUGCUAAGGGGGCCUGGAAGUUUGGACUGGGCAGAGCUCAACACAGCGUGGCAAAGUGGCUGUGGCUAGACUGCCUCUCUGGAUUCCACGUCACUCCGCAGGGCAUCUCUGAGAGAAAUGCC [U112A A121C] | 1.92 |
| UACGUAGGUGGUUUUCCCCUGAUAGUGCUAAGGGGGCCUGGGAGUUUGGACUGGGCAGAGCUCAACACAGCGUGGCAAAGUGGCUGUGGCUAGACUGUCUCUCUGGAUUCCUCGUCACUCAGCAGGGCAUCUCUGAGAGAAAUGCC [A42G C98U] | 0.53 |
| UGCGUAGGUGGUUUUCCCCUGAUAGUGCUAAGGGGGCCUGGAAGUUUGGACUGGGCAGAGCUCAACACAGCGUGGCAAAGUGGCUGUGGCUAGACUGCCUCUCUGGAUUCCUCGUCACUCAGCAGGGCAUCUCUGAGAGAAACGCC [A2G U143C] | 1.2 |
| UACGUAGGUGGUUUUCCCCUGAUAGUGCUAAGGGGGCCUGGAAGUUUGGACUGGGCAGAGCUCAACACAGCGUGGCAAAGUGGCUGUGGCUAGACUGCCUCUCUGGAUUCCUCGUCACACAGCAGGGCAUCUCUGAGAGAAAGGCC [U119A U143G] | 0.91 |
| UACGUAGGUGGUUUUCCCCCGAUAGUGCUAAGGGGGCCUGGAAGUUUGGACUGGGCAGAGCUCAACACAGCGUGGCAAAGAGGCUGUGGCUAGACUGCCUCUCUGGAUUCCUCGUCACUCAGCAGGGCAUCUCUGAGAGAAAUGCC [U20C U81A] | 1.44 |
| UACGUAGGUGGUUUUCCCCUGAUAGUGCUAAGGGGGCCUGGAAGUUUGGACUGGGCAGAGCUCAACACAGCGUGGCAAAGCGGCUGUGGCUAGCCUGCCUCUCUGGAUUCCUCGUCACUCAGCAGGGCAUCUCUGAGAGAAAUGCC [U81C A94C] | 0 |
| UACGCAGGUGGUUUUCCCCUGAUAGUGCUAAGGGGGCCUGGAAGUUUGGACUGGGCAGAACUCAACACAGCGUGGCAAAGUGGCUGUGGCUAGACUGCCUCUCUGGAUUCCUCGUCACUCAGCAGGGCAUCUCUGAGAGAAAUGCC [U5C G60A] | 0.08 |
